Key:
[1] = biological target: Human GAL9 protein (Acro Biosystems, Human Gal9 His-tag Cat #LG9-H5244) (human); assay: Octet BLI, IgG1 immobilised on biosensor, GAL9 analyte dilution series, global fit (monovalent affinity)
[2] = biological target: human GAL9 of the human PBMC cultures (human); assay: cell-based or functional assay
[3] = biological target: human GAL9 of the human PBMC cultures (human); assay: cell-based or functional assay; remark: listed apart in the source

Sequence of Human GAL9 protein (Acro Biosystems, Human Gal9 His-tag Cat #LG9-H5244) (human) (chain, as listed by the source): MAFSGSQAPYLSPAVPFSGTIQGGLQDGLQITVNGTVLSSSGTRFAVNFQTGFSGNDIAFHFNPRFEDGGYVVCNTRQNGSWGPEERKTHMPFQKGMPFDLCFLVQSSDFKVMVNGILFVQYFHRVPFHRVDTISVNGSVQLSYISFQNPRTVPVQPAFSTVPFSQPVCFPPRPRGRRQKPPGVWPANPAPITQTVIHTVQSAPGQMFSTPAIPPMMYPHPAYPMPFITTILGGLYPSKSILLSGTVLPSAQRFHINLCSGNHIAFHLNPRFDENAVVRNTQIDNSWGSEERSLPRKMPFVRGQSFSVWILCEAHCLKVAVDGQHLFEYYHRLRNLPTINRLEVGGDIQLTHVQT

Row | Binder | Kd [1] | INF-γ 72 hr, Fold change, Average [2] | INF-γ 72 hr, Fold change, Donor 19 [2] | INF-γ 72 hr, Fold change, Donor 25 [2] | INF-γ 72 hr, Fold change, Donor 27 [2] | INF-γ 72 hr, Fold change, as % [2] | INF-γ 72 hr, pg/ml, Donor 19 (HCMV-peptide stimulated PBMCs) [2] | INF-γ 72 hr, pg/ml, Donor 25 (HCMV-peptide stimulated PBMCs) [2] | INF-γ 72 hr, pg/ml, Donor 27 (HCMV-peptide stimulated PBMCs) [2] | TNF-α 72 hr, Fold change, Average [3] | TNF-α 72 hr, Fold change, Donor 19 [3] | TNF-α 72 hr, Fold change, Donor 25 [3] | TNF-α 72 hr, Fold change, Donor 27 [3] | TNF-α 72 hr, Fold change, as % [3] | TNF-α 72 hr, pg/ml, Donor 19 (HCMV-peptide stimulated PBMCs) [3] | TNF-α 72 hr, pg/ml, Donor 25 (HCMV-peptide stimulated PBMCs) [3] | TNF-α 72 hr, pg/ml, Donor 27 (HCMV-peptide stimulated PBMCs) [3]
1 | P9-11 (antibody, IgG1, V domains shown, Tested as bivalent monospecific native human full-length IgG1; also called ABS clone P9-11) VH: EVQLVESGGGLVQPGGSLRLSCAASGFTFSSYYIHWVRQAPGKGLEWVAYISPSGGYTYYADSVKGRFTISADTSKNTAYLQMNSLRAEDTAVYYCARGAVLYSSAMDYWGQGTLVTVSS VL: DIQMTQSPSSLSASVGDRVTITCRASQSVSSAVAWYQQKPGKAPKLLIYSASSLYSGVPSRFSGSRSGTDFTLTISSLQPEDFATYYCQQYYPSPSTFGQGTKVEIKR | 6.55 nM | 0.68 fold | 0.99 fold | 0.52 fold | 0.53 fold | 68.2% | 5890 pg/mL | 23000 pg/mL | 891 pg/mL | 0.64 fold | 0.78 fold | 0.76 fold | 0.4 fold | 64.7% | 607 pg/mL | 982 pg/mL | 374 pg/mL
2 | P9-34 (antibody, IgG1, V domains shown) VH: EVQLVESGGGLVQPGGSLRLSCAASGFTFSTYFIHWVRQAPGKGLEWVAYIYPQGGYTYYADSVKGRFTISADTSKNTAYLQMNSLRAEDTAVYYCARQSYPGVFDYWGQGTLVTVSS VL: DIQMTQSPSSLSASVGDRVTITCRASQSVSSAVAWYQQKPGKAPKLLIYSASSLYSGVPSRFSGSRSGTDFTLTISSLQPEDFATYYCQQWTIALTTFGQGTKVEIKR |  | 0.88 fold |  | 1.01 fold | 0.74 fold | 87.6% |  | 44400 pg/mL | 1050 pg/mL | 0.74 fold |  | 0.68 fold | 0.79 fold | 73.7% |  | 874 pg/mL | 596 pg/mL
3 | P9-37 (antibody, IgG1, V domains shown, Tested as bivalent monospecific native human full-length IgG1; also called ABS clone P9-37) VH: EVQLVESGGGLVQPGGSLRLSCAASGFTFWKYGIHWVRQAPGKGLEWVAYIYPAGGITSYADSVKGRFTISADTSKNTAYLQMNSLRAEDTAVYYCARSDYYSGMGMDYWGQGTLVTVSS VL: DIQMTQSPSSLSASVGDRVTITCRASQSVSSAVAWYQQKPGKAPKLLIYSASSLYSGVPSRFSGSRSGTDFTLTISSLQPEDFATYYCQQYYPSPSTFGQGTKVEIKR | 4.54 nM | 0.55 fold | 0.55 fold |  |  | 54.6% | 3230 pg/mL |  |  | 0.55 fold | 0.55 fold |  |  | 55.2% | 429 pg/mL |  | 
4 | P9-24 (antibody, IgG1, V domains shown, Tested as bivalent monospecific native human full-length IgG1; also called ABS clone P9-24) VH: EVQLVESGGGLVQPGGSLRLSCAASGFTFSSYFIHWVRQAPGKGLEWVASIYPTSHSTSYADSVKGRFTISADTSKNTAYLQMNSLRAEDTAVYYCARLGYPGVMDYWGQGTLVTVSS VL: DIQMTQSPSSLSASVGDRVTITCRASQSVSSAVAWYQQKPGKAPKLLIYSASSLYSGVPSRFSGSRSGTDFTLTISSLQPEDFATYYCQQVDSRLATFGQGTKVEIKR | 5.41 nM | 0.8 fold |  | 0.82 fold | 0.78 fold | 87.6% |  | 35700 pg/mL | 1260 pg/mL | 0.54 fold |  | 0.75 fold | 0.32 fold | 53.5% |  | 962 pg/mL | 299 pg/mL

Now from value to binder:

Row | Kd [1] | INF-γ 72 hr, Fold change, Average [2] | INF-γ 72 hr, Fold change, Donor 19 [2] | INF-γ 72 hr, Fold change, Donor 25 [2] | INF-γ 72 hr, Fold change, Donor 27 [2] | INF-γ 72 hr, Fold change, as % [2] | INF-γ 72 hr, pg/ml, Donor 19 (HCMV-peptide stimulated PBMCs) [2] | INF-γ 72 hr, pg/ml, Donor 25 (HCMV-peptide stimulated PBMCs) [2] | INF-γ 72 hr, pg/ml, Donor 27 (HCMV-peptide stimulated PBMCs) [2] | TNF-α 72 hr, Fold change, Average [3] | TNF-α 72 hr, Fold change, Donor 19 [3] | TNF-α 72 hr, Fold change, Donor 25 [3] | TNF-α 72 hr, Fold change, Donor 27 [3] | TNF-α 72 hr, Fold change, as % [3] | TNF-α 72 hr, pg/ml, Donor 19 (HCMV-peptide stimulated PBMCs) [3] | TNF-α 72 hr, pg/ml, Donor 25 (HCMV-peptide stimulated PBMCs) [3] | TNF-α 72 hr, pg/ml, Donor 27 (HCMV-peptide stimulated PBMCs) [3] | Binder
5 | 3.48 nM |  |  |  |  |  |  |  |  |  |  |  |  |  |  |  |  | P9-25 (antibody, IgG1, V domains shown, Tested as bivalent monospecific native human full-length IgG1; also called ABS clone P9-25) VH: EVQLVESGGGLVQPGGSLRLSCAASGFTFSSYYIHWVRQAPGKGLEWVASIYPYGSYTYYADSVKGRFTISADTSKNTAYLQMNSLRAEDTAVYYCARLGYSSGMDYWGQGTLVTVSS VL: DIQMTQSPSSLSASVGDRVTITCRASQSVSSAVAWYQQKPGKAPKLLIYSASSLYSGVPSRFSGSRSGTDFTLTISSLQPEDFATYYCQQWAPDLTTFGQGTKVEIKR
6 | 1.21 nM |  |  |  |  |  |  |  |  |  |  |  |  |  |  |  |  | P9-50 (antibody, IgG1, V domains shown, Tested as bivalent monospecific native human full-length IgG1; Heavy chain copied as printed: it ends 'SLSPG' without the last K; also called ABS clone P9-50) VH: EVQLVESGGGLVQPGGSLRLSCAASGFTFSSYVIHWVRQAPGKGLEWVALIYSSGGYTQYADSVKGRFTISADTSKNTAYLQMNSLRAEDTAVYYCARVGTTYPSRYLEALDYWGQGTLVTVSS VL: DIQMTQSPSSLSASVGDRVTITCRASQSVSSAVAWYQQKPGKAPKLLIYSASSLYSGVPSRFSGSRSGTDFTLTISSLQPEDFATYYCQQFGSSLPTFGQGTKVEIKR
7 | 2.56 nM | 0.83 fold | 0.83 fold |  |  | 83.4% | 4940 pg/mL |  |  | 0.54 fold | 0.54 fold |  |  | 53.7% | 417 pg/mL |  |  | P9-57 (antibody, IgG1, V domains shown, Tested as bivalent monospecific native human full-length IgG1; also called ABS clone P9-57) VH: EVQLVESGGGLVQPGGSLRLSCAASGFTFSSYYIHWVRQAPGKGLEWVATIYPSGGYTYYADSVKGRFTISADTSKNTAYLQMNSLRAEDTAVYYCARYSYPGVLDYWGQGTLVTVSS VL: DIQMTQSPSSLSASVGDRVTITCRASQSVSSAVAWYQQKPGKAPKLLIYSASSLYSGVPSRFSGSRSGTDFTLTISSLQPEDFATYYCQQSSSFLWTFGQGTKVEIKR

From US20220227873A1 (COUNCIL OF THE QUEENSLAND INSTITUTE OF MEDICAL RESEARCH, published 2022)
